What was measured:
PG1653 = target: T1, PG1653 (Porphyromonas gingivalis, UniProt Q7MU91); experiment: DTNB-coupled thioesterase assay, […] nm; assay type: biochemical; conditions: pH 7.5, 25 °C, 50 mM HEPES, 0.15 M KCl, 1 mM DTNB
T1 sequence (Q7MU91 1-407): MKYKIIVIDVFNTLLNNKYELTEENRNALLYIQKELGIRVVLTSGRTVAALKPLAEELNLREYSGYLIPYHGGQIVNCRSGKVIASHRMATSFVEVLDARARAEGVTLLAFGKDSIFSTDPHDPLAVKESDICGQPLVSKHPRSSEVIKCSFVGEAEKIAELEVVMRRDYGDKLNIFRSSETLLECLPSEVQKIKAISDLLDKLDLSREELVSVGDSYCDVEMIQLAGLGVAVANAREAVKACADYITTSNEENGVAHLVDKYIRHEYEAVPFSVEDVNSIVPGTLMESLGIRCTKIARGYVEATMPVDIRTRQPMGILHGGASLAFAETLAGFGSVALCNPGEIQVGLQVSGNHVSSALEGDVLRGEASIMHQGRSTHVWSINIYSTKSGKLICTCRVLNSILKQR

BF1314 = target: T2, BF1314 (Bacteroides fragilis, UniProt Q5LFS7); experiment: DTNB-coupled thioesterase assay, […] nm; assay type: biochemical; conditions: pH 7.5, 25 °C, 50 mM HEPES, 0.15 M KCl, 1 mM DTNB
T2 sequence (Q5LFS7 1-410): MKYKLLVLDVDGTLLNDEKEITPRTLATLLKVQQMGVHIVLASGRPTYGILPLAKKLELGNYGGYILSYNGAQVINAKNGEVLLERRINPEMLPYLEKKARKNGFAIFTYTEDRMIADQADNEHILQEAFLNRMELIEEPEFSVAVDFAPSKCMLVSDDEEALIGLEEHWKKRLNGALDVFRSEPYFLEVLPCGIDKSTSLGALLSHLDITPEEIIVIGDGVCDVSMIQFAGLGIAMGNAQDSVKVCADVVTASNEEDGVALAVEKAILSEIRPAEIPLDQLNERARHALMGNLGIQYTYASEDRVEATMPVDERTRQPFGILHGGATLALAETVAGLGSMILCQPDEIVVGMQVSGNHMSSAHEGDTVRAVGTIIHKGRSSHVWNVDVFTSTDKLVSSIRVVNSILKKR

BVU2420 = target: T3, BVU2420 (Phocaeicola vulgatus, UniProt A6L315); experiment: DTNB-coupled thioesterase assay, […] nm; assay type: biochemical; conditions: pH 7.5, 25 °C, 50 mM HEPES, 0.15 M KCl, 1 mM DTNB
T3 sequence (A6L315 1-135): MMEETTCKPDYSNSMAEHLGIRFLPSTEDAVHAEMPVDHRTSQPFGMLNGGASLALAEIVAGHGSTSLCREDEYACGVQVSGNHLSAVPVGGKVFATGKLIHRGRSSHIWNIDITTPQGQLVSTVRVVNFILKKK

purified protein [1] = substrate: CC(C)(COP(=O)(O)OP(=O)(O)OC[C@H]1O[C@@H](n2cnc3c(N)ncnc32)[C@H](O)[C@@H]1OP(=O)(O)O)[C@@H](O)C(=O)NCCC(=O)NCCSC(=O)Cc1cccc(O)c1; experiment: purified protein; assay type: biochemical, Phocaeicola vulgatus; conditions: pH 7.5, 25 °C, 50 mM HEPES, 0.15 M KCl, 1 mM DTNB
purified protein [2] = substrate: CC(C)(COP(=O)(O)OP(=O)(O)OC[C@H]1O[C@@H](n2cnc3c(N)ncnc32)[C@H](O)[C@@H]1OP(=O)(O)O)[C@@H](O)C(=O)NCCC(=O)NCCSC(=O)c1ccccc1; experiment: purified protein; assay type: biochemical, Phocaeicola vulgatus; conditions: pH 7.5, 25 °C, 50 mM HEPES, 0.15 M KCl, 1 mM DTNB
purified protein [3] = substrate: CC(C)(COP(=O)(O)OP(=O)(O)OC[C@H]1O[C@@H](n2cnc3c(N)ncnc32)[C@H](O)[C@@H]1OP(=O)(O)O)[C@@H](O)C(=O)NCCC(=O)NCCSC(=O)c1cc(O)c2ccccc2c1O; experiment: purified protein; assay type: biochemical, Phocaeicola vulgatus; conditions: pH 7.5, 25 °C, 50 mM HEPES, 0.15 M KCl, 1 mM DTNB
purified protein [4] = substrate: CC(C)(COP(=O)(O)OP(=O)(O)OC[C@H]1O[C@@H](n2cnc3c(N)ncnc32)[C@H](O)[C@@H]1OP(=O)(O)O)[C@@H](O)C(=O)NCCC(=O)NCCSC(=O)c1ccc(O)cc1; experiment: purified protein; assay type: biochemical, Phocaeicola vulgatus; conditions: pH 7.5, 25 °C, 50 mM HEPES, 0.15 M KCl, 1 mM DTNB
purified protein [5] = substrate: CC(C)(COP(=O)(O)OP(=O)(O)OC[C@H]1O[C@@H](n2cnc3c(N)ncnc32)[C@H](O)[C@@H]1OP(=O)(O)O)[C@@H](O)C(=O)NCCC(=O)NCCSC(=O)Cc1cccc(O)c1; experiment: purified protein; assay type: biochemical, Porphyromonas gingivalis; conditions: pH 7.5, 25 °C, 50 mM HEPES, 0.15 M KCl, 1 mM DTNB
purified protein [6] = substrate: CC(C)(COP(=O)(O)OP(=O)(O)OC[C@H]1O[C@@H](n2cnc3c(N)ncnc32)[C@H](O)[C@@H]1OP(=O)(O)O)[C@@H](O)C(=O)NCCC(=O)NCCSC(=O)c1ccccc1; experiment: purified protein; assay type: biochemical, Porphyromonas gingivalis; conditions: pH 7.5, 25 °C, 50 mM HEPES, 0.15 M KCl, 1 mM DTNB
purified protein [7] = substrate: CC(C)(COP(=O)(O)OP(=O)(O)OC[C@H]1O[C@@H](n2cnc3c(N)ncnc32)[C@H](O)[C@@H]1OP(=O)(O)O)[C@@H](O)C(=O)NCCC(=O)NCCSC(=O)c1cc(O)c2ccccc2c1O; experiment: purified protein; assay type: biochemical, Porphyromonas gingivalis; conditions: pH 7.5, 25 °C, 50 mM HEPES, 0.15 M KCl, 1 mM DTNB
purified protein [8] = substrate: CC(C)(COP(=O)(O)OP(=O)(O)OC[C@H]1O[C@@H](n2cnc3c(N)ncnc32)[C@H](O)[C@@H]1OP(=O)(O)O)[C@@H](O)C(=O)NCCC(=O)NCCSC(=O)c1ccc(O)cc1; experiment: purified protein; assay type: biochemical, Porphyromonas gingivalis; conditions: pH 7.5, 25 °C, 50 mM HEPES, 0.15 M KCl, 1 mM DTNB
purified protein [9] = substrate: NC(=O)OP(=O)(O)O; experiment: purified protein; conditions: pH 7.5, 25 °C, 1 mM MgCl2 (table; methods say 2 mM)
purified protein [10] = substrate: O=P(O)(O)NP(=O)(O)O; experiment: purified protein; conditions: pH 7.5, 25 °C, 1 mM MgCl2 (table; methods say 2 mM)
purified protein [11] = substrate: CC(=O)OP(=O)(O)O; experiment: purified protein; conditions: pH 7.5, 25 °C, 1 mM MgCl2 (table; methods say 2 mM)
purified protein [12] = substrate: O=P(O)(O)OC[C@H](O)CO; experiment: purified protein; conditions: pH 7.5, 25 °C, 1 mM MgCl2 (table; methods say 2 mM)
purified protein [13] = substrate: NC(=O)OP(=O)(O)O; experiment: purified protein; assay type: biochemical, Bacteroides fragilis; conditions: pH 7.5, 25 °C, 1 mM MgCl2 (table; methods say 2 mM)
purified protein [14] = substrate: CC(C)(COP(=O)(O)OP(=O)(O)OC[C@H]1O[C@@H](n2cnc3c(N)ncnc32)[C@H](O)[C@@H]1OP(=O)(O)O)[C@@H](O)C(=O)NCCC(=O)NCCSC(=O)Cc1cccc(O)c1; experiment: purified protein; assay type: biochemical, Bacteroides fragilis; conditions: pH 7.5, 25 °C, 50 mM HEPES, 0.15 M KCl, 1 mM DTNB
purified protein [15] = substrate: CC(C)(COP(=O)(O)OP(=O)(O)OC[C@H]1O[C@@H](n2cnc3c(N)ncnc32)[C@H](O)[C@@H]1OP(=O)(O)O)[C@@H](O)C(=O)NCCC(=O)NCCSC(=O)c1ccccc1; experiment: purified protein; assay type: biochemical, Bacteroides fragilis; conditions: pH 7.5, 25 °C, 50 mM HEPES, 0.15 M KCl, 1 mM DTNB
purified protein [16] = substrate: CC(C)(COP(=O)(O)OP(=O)(O)OC[C@H]1O[C@@H](n2cnc3c(N)ncnc32)[C@H](O)[C@@H]1OP(=O)(O)O)[C@@H](O)C(=O)NCCC(=O)NCCSC(=O)c1cc(O)c2ccccc2c1O; experiment: purified protein; assay type: biochemical, Bacteroides fragilis; conditions: pH 7.5, 25 °C, 50 mM HEPES, 0.15 M KCl, 1 mM DTNB
purified protein [17] = substrate: CC(C)(COP(=O)(O)OP(=O)(O)OC[C@H]1O[C@@H](n2cnc3c(N)ncnc32)[C@H](O)[C@@H]1OP(=O)(O)O)[C@@H](O)C(=O)NCCC(=O)NCCSC(=O)c1ccc(O)cc1; experiment: purified protein; assay type: biochemical, Bacteroides fragilis; conditions: pH 7.5, 25 °C, 50 mM HEPES, 0.15 M KCl, 1 mM DTNB

Molecule napthoyl-CoA has a Km (PG1653) of 170 µM, a Km (BF1314) of 230 µM and a Km (BVU2420) of 180 µM.

B1: BVU2420 (Phocaeicola vulgatus ATCC 8482) (protein)
chain: T3 sequence (A6L315 1-135)
B1 was tested, and the Km (purified protein [1]) was “(8.1 ± 0.6) × 10^2 μM”, the kcat (purified protein [1]) was 0.034 ± 0.001 s⁻¹ and the Km (purified protein [2]) was “(3.1 ± 0.4) × 10^1 μM”. The kcat (purified protein [2]) was 0.028 ± 0.001 s⁻¹, the Km (purified protein [3]) was “(1.5 ± 0.1) × 10^1 μM” and the kcat (purified protein [3]) was 13 ± 1 s⁻¹. For the same molecule, the Km (purified protein [4]) was “(3.3 ± 0.2) × 10^1 μM” and the kcat (purified protein [4]) was 1.2 ± 0.1 s⁻¹.

B2: PG1653 (Porphyromonas gingivalis W83) (protein)
chain: T1 sequence (Q7MU91 1-407)
With B2 the Km (purified protein [5]) was “(1.7 ± 0.3) × 10^2 μM”, the kcat (purified protein [5]) was 0.31 ± 0.02 s⁻¹ and the Km (purified protein [6]) was “(5.8 ± 0.5) × 10^1 μM”. For the same molecule, the kcat (purified protein [6]) was 0.03 ± 0.001 s⁻¹, the Km (purified protein [7]) was 4.0 ± 0.3 µM and the kcat (purified protein [7]) was 10 ± 1 s⁻¹. The Km (purified protein [8]) was “(8.0 ± 0.6) × 10^2 μM” and the kcat (purified protein [8]) was 4.6 ± 0.1 s⁻¹.

B3: BF1314-HAD Domain (Bacteroides fragilis NCTC 9343) (protein)
chain: MKYKLLVLDVDGTLLNDEKEITPRTLATLLKVQQMGVHIVLASGRPTYGILPLAKKLELGNYGGYILSYNGAQVINAKNGEVLLERRINPEMLPYLEKKARKNGFAIFTYTEDRMIADQADNEHILQEAFLNRMELIEEPEFSVAVDFAPSKCMLVSDDEEALIGLEEHWKKRLNGALDVFRSEPYFLEVLPCGIDKSTSLGALLSHLDITPEEIIVIGDGVCDVSMIQFAGLGIAMGNAQDSVKVCADVVTASNEEDGVALAVEKAILSEIRPAEIPLDQLNERARHAL
With B3 the Km (purified protein [9]) was 970 ± 80 µM, the kcat (purified protein [9]) was 0.04167 ± 0.000333 s⁻¹ and the kcat/Km (purified protein [9]) was 42 M⁻¹ s⁻¹. It also gave a Km (purified protein [10]) of 7400 ± 500 µM, a kcat (purified protein [10]) of 0.383 ± 0.0167 s⁻¹ and a kcat/Km (purified protein [10]) of 51 M⁻¹ s⁻¹. The Km (purified protein [11]) was 870 ± 60 µM, the kcat (purified protein [11]) was 0.02 ± 0.00167 s⁻¹ and the kcat/Km (purified protein [11]) was 23 M⁻¹ s⁻¹. It also gave a Km (purified protein [12]) of 63 ± 2 µM, a kcat (purified protein [12]) of 0.011 ± 0.001 s⁻¹ and a kcat/Km (purified protein [12]) of 170 M⁻¹ s⁻¹.

B4: BF1314 (Bacteroides fragilis NCTC 9343) (protein)
chain: T2 sequence (Q5LFS7 1-410)
For B4, the Km (purified protein [13]) was 440 ± 30 µM, the kcat (purified protein [13]) was 0.0217 ± 0.00167 s⁻¹ and the kcat/Km (purified protein [13]) was 54 M⁻¹ s⁻¹. For the same molecule, the Km (purified protein [14]) was “(4.6 ± 0.4) × 10^1 μM”, the kcat (purified protein [14]) was 0.19 ± 0.01 s⁻¹ and the Km (purified protein [15]) was “(8.4 ± 0.8) × 10^1 μM”. For the same molecule, the kcat (purified protein [15]) was 0.024 ± 0.002 s⁻¹, the Km (purified protein [16]) was 7.0 ± 0.5 µM and the kcat (purified protein [16]) was 12 ± 1 s⁻¹. The Km (purified protein [17]) was “(2.3 ± 0.2) × 10^2 μM” and the kcat (purified protein [17]) was 1.1 ± 0.1 s⁻¹.
